Assays:
RNF8 [1] = biological target: RNF8 (UniProt O76064); test: biotin-peptide pull-down, Western blot
RNF8 [2] = biological target: RNF8 (UniProt O76064); test: biotin-peptide pull-down, LC-MS/MS; settings: reference: unphosphorylated T752 peptide; sites T752
Pellino 2 (PELI2) = Pellino 2 (PELI2) (UniProt Q9HAT8); test: biotin-peptide pull-down, LC-MS/MS; settings: reference: unphosphorylated T752 peptide; sites T752
Pellino 1 (PELI1) = Pellino 1 (PELI1) (UniProt Q96FA3); test: biotin-peptide pull-down, LC-MS/MS; settings: reference: unphosphorylated T752 peptide; sites T752
[3] = biological target: Pellino 2 (PELI2) FHA domain, 1-275 (UniProt Q9HAT8); test: biotin-peptide pull-down, stained gel
MDC1 = MDC1 (UniProt Q14676); test: biotin-peptide pull-down, Western blot; settings: reference: unphosphorylated S139 peptide; sites S139
[4] = reference: unphosphorylated T752 peptide, sites T752
[5] = reference: unphosphorylated T719 peptide, sites T719

## MDC1 (from UniProt Q14676) pT765 peptide
RNF8 [1]; reference: unphosphorylated T765 peptide, sites T765
  binding against the reference: stronger

## MDC1 (from UniProt Q14676) pT699 peptide
RNF8 [1]; reference: unphosphorylated T699 peptide, sites T699
  binding against the reference: stronger

## MDC1 743-757 (from UniProt Q14676) pT752 peptide
RNF8 [2]
  binding against the reference: gained
Pellino 2 (PELI2)
  binding against the reference: gained
Pellino 1 (PELI1)
  binding against the reference: gained
RNF8 [1]; [4]
  binding against the reference: stronger
[3]; [4]
  binding against the reference: gained

## H2AX (from UniProt P16104) pS139 peptide
MDC1
  binding against the reference: stronger

## MDC1 (from UniProt Q14676) pT719 peptide
RNF8 [1]; [5]
  binding against the reference: stronger
[3]; [5]
  binding against the reference: gained
